In patent publication US20140288007A1:
Several values for one entry are separate records, joined by “and”; a condition that tells them apart may be missing. Equal values may be shown once.

How the values were obtained:
[1] = target: KgpcatΔABM1 (enriched fraction from P. gingivalis mutant ECR368) (Porphyromonas gingivalis) (UniProt Q51817); test: enzyme inhibition kinetics (non-competitive, Ki′), chromogenic substrate GPKNa, secondary plot of Vmax observed against inhibitor concentration
[2] = target: KgpcatΔABM1 (enriched fraction from P. gingivalis mutant ECR368) (Porphyromonas gingivalis) (UniProt Q51817); test: cell-based or functional assay

Substance	Ki [1] [µM]	inhibition of KgpcatΔABM1 activity, chromogenic substrate GPKNa [2]	inhibition of KgpcatΔABM1 enriched fraction activity, fluorescent BSA substrate (DQ BSA), 2 h [2] [%]	% Proteolytic Activity (GPKNa; inhibitor 50 mg/L) [2] [%]
recombinant Kgp propeptide (from UniProt Q51817 25-1732)	2.01	75% and 60%	66	
recombinant RgpB propeptide (from UniProt P95493 25-229)				118
